What was measured:
[1] = target: T1, recombinant hGPC1 protein (Homo sapiens, UniProt P35052); experiment: SPR; scFv-Fc fusion protein (1 μg/ml) captured by polyclonal rabbit anti-mouse IgG immobilised on CM5 chip; recombinant hGPC1 (6.25–400 nM) or mGPC1 (25–400 nM) injected; 25°C, HBS-EP+ buffer, Biacore T200; settings: both partners purified
T1 construct: glypican-1 (GPC1), human, recombinant protein from Biolegend; also called Human GPC1; human glypican-1; source: bought: Biolegend

[2] = target: T2, recombinant mGPC1 protein (Mus musculus, UniProt Q9QZF2); experiment: as above; settings: both partners purified
T2 construct: glypican-1 (GPC1), mouse, recombinant protein from Biolegend; also called Mouse GPC1; mouse glypican-1; source: bought: Biolegend
T2 sequence (Q9QZF2 24-529): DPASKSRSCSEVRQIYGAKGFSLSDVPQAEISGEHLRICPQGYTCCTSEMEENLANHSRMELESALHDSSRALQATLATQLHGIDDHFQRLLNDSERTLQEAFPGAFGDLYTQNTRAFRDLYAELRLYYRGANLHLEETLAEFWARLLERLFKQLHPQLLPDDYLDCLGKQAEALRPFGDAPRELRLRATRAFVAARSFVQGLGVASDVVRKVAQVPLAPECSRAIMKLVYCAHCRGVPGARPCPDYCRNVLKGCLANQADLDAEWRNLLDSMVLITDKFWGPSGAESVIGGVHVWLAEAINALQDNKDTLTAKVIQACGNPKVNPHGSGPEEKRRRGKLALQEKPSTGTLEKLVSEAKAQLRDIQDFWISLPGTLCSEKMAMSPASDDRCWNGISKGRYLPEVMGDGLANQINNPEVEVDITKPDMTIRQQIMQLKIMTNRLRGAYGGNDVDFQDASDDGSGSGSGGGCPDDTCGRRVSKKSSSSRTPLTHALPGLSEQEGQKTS

T1 sequence (P35052 24-530): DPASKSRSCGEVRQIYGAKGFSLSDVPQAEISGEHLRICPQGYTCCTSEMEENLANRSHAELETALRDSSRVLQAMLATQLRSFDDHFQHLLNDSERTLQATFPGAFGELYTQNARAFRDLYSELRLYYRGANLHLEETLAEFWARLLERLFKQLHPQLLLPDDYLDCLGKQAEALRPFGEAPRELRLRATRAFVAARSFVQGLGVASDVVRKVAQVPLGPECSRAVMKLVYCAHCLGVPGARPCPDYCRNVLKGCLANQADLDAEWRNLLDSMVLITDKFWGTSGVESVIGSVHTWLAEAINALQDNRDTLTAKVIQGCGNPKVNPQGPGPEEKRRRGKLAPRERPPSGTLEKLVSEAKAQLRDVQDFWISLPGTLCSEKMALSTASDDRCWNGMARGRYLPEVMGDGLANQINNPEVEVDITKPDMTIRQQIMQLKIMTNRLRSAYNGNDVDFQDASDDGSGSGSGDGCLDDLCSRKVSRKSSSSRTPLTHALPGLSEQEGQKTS

| Binder | Kd [1] [nM] | Kd [2] [nM] |
| --- | --- | --- |
| LH form of anti GPC1 scFv-mIgG2a Fc fusion protein (scFv, V domains shown, VL of anti-GPC1 mAb (clone: 1–12); purple) and its source data 1; linker of the scFv; orange); VH of anti-GPC1 mAb (clone: 1–12); green) and its source data 1; scFv cloned into pCAG-Neo mIgG2a-Fc plasmid (FUJIFILM Wako); Variable regions come from a chicken-based antibody; In the functional rows the same scFv stood as a CAR (human CD28 and CD3ζ domains) on human T cells; also called LH form of …) VH: AVTLDESGGGLQTPGRALSLVCKASGFTFSRYAMYWVRQAPGKGLEFVAGIGNTGRYTGYGSAVKGRATISRDSGQSTVRLQLNNLRAEDTGNYYCAKSVSPYCCDAADIDAWGHGTEVIVSS VL: ASTQPSSVSANPGETVKITCSGGSSGYAYGWYQQKSPGSAPVTLLYSNNNRPSDIPSRFSGSKSGSTATLTITGVQAEDEAVYFCGSVDSSSYAGIFGAGTTLTVL | 9.06 | 51.8 |
| HL form of anti GPC1 scFv-mIgG2a Fc fusion protein (scFv, V domains shown, VH of anti-GPC1 mAb (clone: 1–12), as the VH of m1; linker of the scFv; orange); VL of anti-GPC1 mAb (clone: 1–12), as the VL of m1; scFv cloned into pCAG-Neo mIgG2a-Fc plasmid (FUJIFILM Wako); Variable regions come from a chicken-based antibody; In the functional rows the same scFv stood as a CAR on human T cells (human CD28/CD3ζ) or murine T cells (mouse CD28/CD3ζ); also called HL form of scFv; …) VH: AVTLDESGGGLQTPGRALSLVCKASGFTFSRYAMYWVRQAPGKGLEFVAGIGNTGRYTGYGSAVKGRATISRDSGQSTVRLQLNNLRAEDTGNYYCAKSVSPYCCDAADIDAWGHGTEVIVSS VL: ASTQPSSVSANPGETVKITCSGGSSGYAYGWYQQKSPGSAPVTLLYSNNNRPSDIPSRFSGSKSGSTATLTITGVQAEDEAVYFCGSVDSSSYAGIFGAGTTLTVL | 12.2 | 109 |

— publication PMC7108862, “GPC1 specific CAR-T cells eradicate established solid tumor without adverse effects and synergize with anti-PD-1 Ab” (eLife, 2020)
